Measured values from paper PMC1402309, “Selection, affinity maturation, and characterization of a human scFv antibody against CEA protein” (BMC Cancer, 2006).
Where a chain is given by its changes, count along the chain named. Where two headings read alike, the source gives them in different places.

B1: B3 (antibody, V domains shown)
VH: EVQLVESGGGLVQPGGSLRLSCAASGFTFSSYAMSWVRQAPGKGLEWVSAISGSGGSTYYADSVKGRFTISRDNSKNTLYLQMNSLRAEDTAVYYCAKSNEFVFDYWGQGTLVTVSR
VL: SSELTQDPAVSVALRQTVRITCQRDSLRSYYASWYQQKPGQAPVLVIYGKNNRPSGIPDRFSGSSSGNTASLTITGAQAEDEADYYCNSSYPWLPYVVFGGGTKLTVL
B2: E3 (antibody, V domains shown)
VH: EVQLAESGGGLVRPGGSLRLSCAASGFTFSSYAMSTVRQAPGKGLEWVSAISGSGGSTYYADSVKGRFTISRDNSENTLYLQMNSLRAEDTAVYYCAKSNEFLFDYWGQGTLVTVSR
VL: B1 VL with R15G, R24G, Y30S, P92A
B3: E14 (antibody, V domains shown)
VH: B2 VH with R13Q, K65M, E76K
VL: B1 VL with R15G, R24G, S29G, Y30S, Y35H, G63V, P92A
B4: human MA39 scFv (anti-CEA single-chain antibody fragment) (scFv, V domains shown)
VH: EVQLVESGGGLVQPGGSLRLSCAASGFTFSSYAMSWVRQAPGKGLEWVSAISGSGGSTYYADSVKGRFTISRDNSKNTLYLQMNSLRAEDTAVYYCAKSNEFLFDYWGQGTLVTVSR
VL: B1 VL with R15G, R24G
notes: clone from the ETH-2 synthetic human scFv library (DP47 heavy chain; DPK22 or DPL16 light chain, randomised CDR3s); the ELISA methods use soluble scFv; The methods name the host once as 'HB121'; also called scFv MA39; M39; source: E. coli HB2151, periplasmic extract, purified (Ni-NTA agarose); also culture supernatant
B5: E4 (antibody, V domains shown)
VH: B2 VH with R13Q, A33G, E76K
VL: B1 VL with S1L, V10A, R15G, R24G, Y30S, S55P, G63V, P92A
B6: E1 (antibody, V domains shown)
VH: B2 VH with R13Q, S21P, S25P, E76K
VL: B1 VL with R15G, Q23R, R24G, Y30S, G63V, P92A, L94P
B7: E15 (antibody, V domains shown)
VH: B2 VH with A5V, R13Q, A23T, S31R, E76K
VL: B1 VL with R15G, R24G, Y30S, G63V, P92A
B8: E6 (antibody, V domains shown)
VH: B2 VH with A5V, S7T, R13Q, T28A, A33G, E76K
VL: B1 VL with R15G, R24G, Y30S, Y31H, Q41R, D59A, G63A, P92A
B9: B17 (antibody, V domains shown)
VH: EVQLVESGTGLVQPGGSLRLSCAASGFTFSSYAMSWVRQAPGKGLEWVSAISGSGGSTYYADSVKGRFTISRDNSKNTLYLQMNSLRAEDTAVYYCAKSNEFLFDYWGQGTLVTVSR
VL: B1 VL with R15G, R24G
B10: E5 (antibody, V domains shown)
VH: B2 VH with R13Q, F27L, A33G, E76K
VL: B1 VL with L14S, R15G, R24G, Y30S, Q37R, N68S, P92A
B11: B5 (antibody, V domains shown)
VH: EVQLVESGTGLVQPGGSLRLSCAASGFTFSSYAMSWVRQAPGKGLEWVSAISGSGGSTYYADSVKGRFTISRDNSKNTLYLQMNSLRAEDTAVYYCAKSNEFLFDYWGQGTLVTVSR
VL: B1 VL with S11P, R24G
B12: E13 (antibody, V domains shown)
VH: B2 VH with S7P, R13Q, F27L, V37I
VL: B1 VL with R15G, T17A, R24G, Y30T, T75A, P92A
B13: E9 (antibody, V domains shown)
VH: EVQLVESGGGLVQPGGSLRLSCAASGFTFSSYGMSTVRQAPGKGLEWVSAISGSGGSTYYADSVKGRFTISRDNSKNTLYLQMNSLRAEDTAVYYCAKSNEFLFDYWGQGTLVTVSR
VL: B1 VL with R15G, R24G, Y30S, D59G, G63V, P92A
B14: E2 (antibody, V domains shown)
VH: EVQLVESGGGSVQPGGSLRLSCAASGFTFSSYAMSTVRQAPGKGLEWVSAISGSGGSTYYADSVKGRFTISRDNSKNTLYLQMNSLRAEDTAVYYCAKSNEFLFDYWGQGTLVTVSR
VL: SSELTQDPAVSAAWGQTVRITCRGGSLGSSRASWYQQKPGQAPVLVIYGRNNRPSGIPDRFSGSSSGNTASLAITGAQAEDEADYYCNSSYAWLPYVVFGGGTKLTVL

What was measured:
[1] = target: T1, carcinoembryonic antigen (CEA), human purified protein (Sigma) (Homo sapiens, UniProt P06731, biotin (biotinamidohexanoic acid N-hydroxysuccinimide ester) for selection and for the ELISA on streptavidin-coated plates; biotin-free for directly coated plates)
T1 sequence (P06731 35-685): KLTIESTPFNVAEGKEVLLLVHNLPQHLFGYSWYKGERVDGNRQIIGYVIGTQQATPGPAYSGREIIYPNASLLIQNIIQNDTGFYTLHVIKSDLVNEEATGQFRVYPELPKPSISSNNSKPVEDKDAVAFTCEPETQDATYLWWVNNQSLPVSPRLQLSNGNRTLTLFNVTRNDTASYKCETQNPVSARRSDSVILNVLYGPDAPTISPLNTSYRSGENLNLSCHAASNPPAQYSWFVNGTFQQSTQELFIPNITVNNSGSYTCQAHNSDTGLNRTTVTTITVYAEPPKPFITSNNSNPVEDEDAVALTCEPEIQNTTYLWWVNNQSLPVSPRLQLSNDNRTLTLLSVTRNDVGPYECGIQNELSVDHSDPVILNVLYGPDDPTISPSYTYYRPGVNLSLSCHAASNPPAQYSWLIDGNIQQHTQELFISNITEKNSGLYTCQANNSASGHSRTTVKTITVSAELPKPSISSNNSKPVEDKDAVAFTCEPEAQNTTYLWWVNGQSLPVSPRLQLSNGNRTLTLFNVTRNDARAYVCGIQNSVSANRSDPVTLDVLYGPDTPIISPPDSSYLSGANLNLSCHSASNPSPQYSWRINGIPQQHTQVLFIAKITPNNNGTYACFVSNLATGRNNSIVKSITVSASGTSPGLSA

[2] = target: T1, carcinoembryonic antigen (CEA), human …; assay: ELISA; biotinylated CEA (1 ug/mL) on streptavidin-coated plates; scFv in blocking buffer (MPBS) 1 h at RT; anti-FLAG M2 and anti-mouse HRP; details: one partner purified
[3] = target: T2, CEA, endogenous in human colon carcinoma LoVo cells (Homo sapiens (LoVo cells), UniProt P06731); assay: flow cytometry on cells; living/intact human cells; 5 ug/mL scFv in PBS 1% BSA, 1 h at RT; anti-FLAG and FITC goat anti-mouse IgG; grades by percent stained cells; details: one partner purified
T2 construct: carcinoembryonic antigen (CEA, CEACAM5), endogenous in LoVo colorectal carcinoma cells; which member carries the signal on cells is not separated; also called CEA in LoVo cells; 200 kDa band of LoVo cellular extract; source: endogenous, LoVo cells (on cells) and LoVo cellular extract
T2 sequence (P06731 35-685): as above

Binder	binding result [1]	binding result [2]	binding result [3]
B1	binds		
B2	binds		
B3	binds		
B4		binds	binds
B5	binds		
B6	binds		
B7	binds		
B8	binds		
B9	binds		
B10	binds		
B11	binds		
B12	binds		
B13	binds		
B14	binds		
